Source: US20240252614A1 (Pfizer, published 2024)

Tests used:
PIV1055 = target: T1, PIV1055 (PIV1); assay: BLI, 53C stress
T1 construct: A466L, S473L, G134A
Description: (§1) The OCTET HTX (Sartorius, Gottingen, Germany) instrument was used to evaluate the expression and conformational integrity for each mutant. All measurements were conducted at 30° C. temperature in 96-well black plates (Corning, Corning, NY) with a final volume of 240 μL per well at a constant agitation rate of 1000 RPM.
(§2) Conformation integrity of PIV1 F protein mutants were evaluated by a thermal stress experiment. Crude cell culture supernatants were normalized based on the results of the titer quantitation and then incubated for 1 hour at room temperature and two higher temperatures. For the initial testing of PIV1 mutants, the two temperatures were 50° C. and 53° C. […] Anti-Human IgG Fc Capture (AHC) biosensors were first equilibrated in PB for before being dipped into more PB to establish the initial baseline. […] The mAb-bound biosensors were then dipped into the thermal stresses cell culture supernatants for 5 minutes.

PIV1067 [1] = target: T2, PIV1067 (PIV1); assay: BLI, 53C stress
T2 construct: F113G, F114S, Q92C-G134C, A466I, S473I, A480I
Description: as §1, §2

PIV1066 [2] = target: T3, PIV1066 (PIV1); assay: BLI, 53C stress
T3 construct: A466I, S473I, A480L, Q92L, G134A
Description: as §1, §2

PIV1050 [3] = target: T4, PIV1050 (PIV1); assay: BLI, 53C stress
T4 construct: F113G, F114S, Q92C-G134C, A466V, S473V, A480V
Description: as §1, §2

[4] = target: T5, PIV1 F literature prefusion comparison (PIV1); assay: BLI, 53C stress
T5 construct: F113G, F114S, A466I, S473I (Stewart-Jones et al. 2018)
Description: as §1, §2

PIV1060 = target: T6, PIV1060 (PIV1); assay: BLI, 53C stress
T6 construct: Q92L, G134A, A466L, S473L, A480L
Description: as §1, §2

PIV1058 [5] = target: T7, PIV1058 (PIV1); assay: BLI, 53C stress
T7 construct: A466L, S473L, Q92A, G134A
Description: as §1, §2

PIV1056 [6] = target: T8, PIV1056 (PIV1); assay: BLI, 53C stress
T8 construct: F113G, F114S, A466L, S473L, A480L, Q92A, G134A
Description: as §1, §2

PIV1051 [7] = target: T9, PIV1051 (PIV1); assay: BLI, 53C stress
T9 construct: Q92C-G134C, A466V, S473V, A480V
Description: as §1, §2

PIV1059 [8] = target: T10, PIV1059 (PIV1); assay: BLI, 53C stress
T10 construct: F113G, F114S, A466L, S473L, A480L, G134A, Q92L
Description: as §1, §2

PIV1061 [9] = target: T11, PIV1061 (PIV1); assay: BLI, 53C stress
T11 construct: Q92L, G134A, A466L, S473L
Description: as §1, §2

PIV1062 = target: T12, PIV1062 (PIV1); assay: BLI, 53C stress
T12 construct: F113G, F114S, A466L, S473L, A480L, Q92A, G134L
Description: as §1, §2

PIV1068 [10] = target: T13, PIV1068 (PIV1); assay: BLI, 53C stress
T13 construct: A466I, S473I, A480I, Q92L, G134A
Description: as §1, §2

PIV1057 [11] = target: T14, PIV1057 (PIV1); assay: BLI, 53C stress
T14 construct: A466L, S473L, A480L, Q92A, G134A
Description: as §1, §2

PIV1063 [12] = target: T15, PIV1063 (PIV1); assay: BLI, 53C stress
T15 construct: A466L, S473L, A480L, Q92A, G134L
Description: as §1, §2

PIV1048 [13] = target: T16, PIV1048 (PIV1); assay: BLI, 53C stress
T16 construct: Q92C-G134C, A466L, S473L, A480L
Description: as §1, §2

PIV1052 [14] = target: T17, PIV1052 (PIV1); assay: BLI, 53C stress
T17 construct: Q92C-G134C, A466V, S473V; also called PV1052
Description: as §1, §2

PIV1049 = target: T18, PIV1049 (PIV1); assay: BLI, 53C stress
T18 construct: Q92C-G134C, A466L, S473L
Description: as §1, §2

PIV1064 [15] = target: T19, PIV1064 (PIV1); assay: BLI, 53C stress
T19 construct: F113G, F114S, Q92C-G134C, A466I, S473I, A480L
Description: as §1, §2

PIV1053 [16] = target: T20, PIV1053 (PIV1); assay: BLI, 53C stress
T20 construct: F113G, F114S, A466L, S473L, A480L, G134A
Description: as §1, §2

PIV1047 [17] = target: T21, PIV1047 (PIV1); assay: BLI, 53C stress
T21 construct: F113G, F114S, Q92C-G134C, A466L, S473L, A480L
Description: as §1, §2

PIV1054 [18] = target: T22, PIV1054 (PIV1); assay: BLI, 53C stress
T22 construct: A466L, S473L, A480L, G134A
Description: as §1, §2

PIV1065 = target: T23, PIV1065 (PIV1); assay: BLI, 53C stress
T23 construct: F113G, F114S, Q92C-G134C, A466I, S473I
Description: as §1, §2

PIV1067 [19] = target: T2, PIV1067; assay: BLI, 56C stress
Description: as §1, §2

PIV1066 [20] = target: T3, PIV1066; assay: BLI, 56C stress
Description: as §1, §2

PIV1050 [21] = target: T4, PIV1050; assay: BLI, 56C stress
Description: as §1, §2

[22] = target: T5, PIV1 F literature prefusion comparison; assay: BLI, 56C stress
Description: as §1, §2

PIV1058 [23] = target: T7, PIV1058; assay: BLI, 56C stress
Description: as §1, §2

PIV1056 [24] = target: T8, PIV1056; assay: BLI, 56C stress
Description: as §1, §2

PIV1051 [25] = target: T9, PIV1051; assay: BLI, 56C stress
Description: as §1, §2

PIV1059 [26] = target: T10, PIV1059; assay: BLI, 56C stress
Description: as §1, §2

PIV1061 [27] = target: T11, PIV1061; assay: BLI, 56C stress
Description: as §1, §2

PIV1068 [28] = target: T13, PIV1068; assay: BLI, 56C stress
Description: as §1, §2

PIV1057 [29] = target: T14, PIV1057; assay: BLI, 56C stress
Description: as §1, §2

PIV1063 [30] = target: T15, PIV1063; assay: BLI, 56C stress
Description: as §1, §2

PIV1048 [31] = target: T16, PIV1048; assay: BLI, 56C stress
Description: as §1, §2

PIV1052 [32] = target: T17, PIV1052; assay: BLI, 56C stress
Description: as §1, §2

PIV1064 [33] = target: T19, PIV1064; assay: BLI, 56C stress
Description: as §1, §2

PIV1053 [34] = target: T20, PIV1053; assay: BLI, 56C stress
Description: as §1, §2

PIV1047 [35] = target: T21, PIV1047; assay: BLI, 56C stress
Description: as §1, §2

PIV1054 [36] = target: T22, PIV1054; assay: BLI, 56C stress
Description: as §1, §2
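Also: binding of thermally stressed PIV1 F mutant supernatant to mAb on AHC biosensors for 5 min.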

B1: PIV1-8 mAb (antibody, V domains shown)
VH: QVQLVQSGAEVKKPGSSVKVSCEASGGTFSNYVISWVRQAPGQGLEWMGGIIPVFATAKYAQKFQGRVTIIADQSTNTAYLELSSLRSDDTAVYFCASVDSGGTWWDAFAIWGQGTMVTVSS
VL: QAVVTQPRSVSGSPGQAVTISCTGTSSDVGGYNYVSWYQHHPGKAPKLIIYDVTKRPSGVPDRFSGSKSGNTASLTISGLQTEYEADYYCCSYAGSYTLVFGGGTKLTVLG
notes: human IgG1; also called hPIV1-8 mAb; hPIV1-8
- Response Shift (PIV1055): 0.787 nm
- Response Shift (PIV1067 [1]): 0.896 nm
- Response Shift (PIV1066 [2]): 0.722 nm
- Response Shift (PIV1050 [3]): 0.907 nm
- Response Shift [4]: 0.646 nm
- Response Shift (PIV1060): 0.671 nm
- Response Shift (PIV1058 [5]): 0.704 nm
- Response Shift (PIV1056 [6]): 0.805 nm
- Response Shift (PIV1051 [7]): 0.744 nm
- Response Shift (PIV1059 [8]): 0.903 nm
- Response Shift (PIV1061 [9]): 0.648 nm
- Response Shift (PIV1062): 0.714 nm
- Response Shift (PIV1068 [10]): 0.65 nm
- Response Shift (PIV1057 [11]): 0.808 nm
- Response Shift (PIV1063 [12]): -0.036 nm
- Response Shift (PIV1048 [13]): 0.783 nm
- Response Shift (PIV1052 [14]): -0.026 nm
- Response Shift (PIV1049): 0.883 nm
- Response Shift (PIV1064 [15]): 0.897 nm
- Response Shift (PIV1053 [16]): 0.901 nm
- Response Shift (PIV1047 [17]): 0.862 nm
- Response Shift (PIV1054 [18]): 0.826 nm
- Response Shift (PIV1065): 0.816 nm
- Response Shift (PIV1067 [19]): 0.728 nm
- Response Shift (PIV1066 [20]): 0.582 nm
- Response Shift (PIV1050 [21]): 0.695 nm
- Response Shift [22]: 0.119 nm
- Response Shift (PIV1058 [23]): 0.543 nm
- Response Shift (PIV1056 [24]): 0.751 nm
- Response Shift (PIV1051 [25]): 0.322 nm
- Response Shift (PIV1059 [26]): 0.784 nm
- Response Shift (PIV1061 [27]): 0.526 nm
- Response Shift (PIV1068 [28]): 0.559 nm
- Response Shift (PIV1057 [29]): 0.737 nm
- Response Shift (PIV1063 [30]): -0.069 nm
- Response Shift (PIV1048 [31]): 0.71 nm
- Response Shift (PIV1052 [32]): -0.094 nm
- Response Shift (PIV1064 [33]): 0.702 nm
- Response Shift (PIV1053 [34]): 0.776 nm
- Response Shift (PIV1047 [35]): 0.754 nm
- Response Shift (PIV1054 [36]): 0.723 nm
